# Assay results from paper PMC4309839, “Functional classification and biochemical characterization of a novel rho class glutathione S-transferase in Synechocystis PCC 6803” (FEBS Open Bio, 2014).
# Tested on: O=C(O)C(Cl)Cl
# Assay: purified protein
# Assay type: biochemical, Synechocystis sp. PCC 6803
# Conditions: 1 mM GSH, 0.05-1 mM DCA, 100 mM phosphate pH 7.4, 37 °C
substance,measurement,value
sll1545 (Synechocystis sp. PCC 6803 substr. Kazusa),Km,140 ± 20 µM
same,Vmax,11.8 µmol/min
same,kcat,82.17 ± 0.23 s⁻¹
same,kcat/Km,574600 ± 990 M⁻¹ s⁻¹
